Test results as given in PMC5508476 (Translational Oncology, 2017).

Target: FOLR1-His (Homo sapiens, UniProt P15328)
Assay: SPR

FOLR1-His, sequence (P15328 25-233): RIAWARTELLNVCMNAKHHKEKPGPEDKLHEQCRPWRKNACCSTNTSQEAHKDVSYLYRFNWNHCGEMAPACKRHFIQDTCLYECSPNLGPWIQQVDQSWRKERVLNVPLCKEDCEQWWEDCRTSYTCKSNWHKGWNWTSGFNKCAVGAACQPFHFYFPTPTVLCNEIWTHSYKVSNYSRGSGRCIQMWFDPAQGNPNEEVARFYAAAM

Kd: 31.4 nM
B1: KM8188 (antibody, V domains shown)
VH: EVQLVESGGGVVQPGRSLRLSCSASGFTFSGYGLSWVRQAPGKGLEWVAMISSGGSYTYYADSVKGRFAISRDNAKNTLFLQMDSLRPEDTGVYFCARHGDDPAWFAYWGQGTPVTVSS
VL: DIQLTQSPSSLSASVGDRVTITCSVSSSISSNNLHWYQQKPGKAPKPWIYGTSNLASGVPSRFSGSGSGTDYTFTISSLQPEDIATYYCQQWSSYPYMYTFGQGTKVEIK
